The record followed here is US20230257452A1 (GTINVENT, published 2023).

In the test the target is T1, dGAE (tau 297-391) (human, UniProt P10636 614-708).
T1 construct: also called dGAE95
Nature of the test: tau-tau immunoassay: scAb preincubated with 100 nM dGAE; blocked ligand: plate-bound dGA (1000 nM); bound dGAE detected with E2E8. The procedure:
The adapted method is as follows: dGA (1000 nM) was adsorbed to a Nunc 96-well MaxiSorp plate and incubated for 1 h at 37° C. Plates were subsequently washed 3 times with PBST which was performed after each 1 h incubation. The plates were blocked with 2% (w/v) dried milk powder in PBS for 1 h at 37° C. […] The secondary antibody used was HRP-conjugated Anti-mouse IgG (1:1000 dilution, Sigma) and incubated at RT for 1 h. The plate was subsequently developed, and readings taken at absorbance 450 nm.

T1 sequence (P10636 614-708 limits assumed): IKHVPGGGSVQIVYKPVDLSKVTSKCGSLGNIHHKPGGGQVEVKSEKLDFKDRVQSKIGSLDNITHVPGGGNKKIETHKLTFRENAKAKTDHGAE

B1: S1B1 scAb (scFv)
scFv: QVQLQESGPSLVKPSQTLSLTCTVSGFSLSSNSVGWVRQAPGKAPEWVAGIDTDGEEGYNPALNSRLSITRDTSKSQVSLSLSSVTSEDTAVYYCVRSYRTDGLAYGYVQAIDYWGPGLLVTVSSEGKSSGASGESKVDDQAVLTQPSSVSGSLGQRVSITCSGSFIGISSVGWFQQLPGSGLRTVIVASDGRPSGVPDRFSNSKSGNTATLTISSLQAEDEADYFCGSSDRTQYTGVFGSGTRLTVLG
notes: not shown: human C kappa domain and hexa-His tag of the scAb format
For the molecule B1, the B50 is 101 nM.

B2: S1E12 scAb (scFv)
scFv: QVQLQESGPSLVKPSQTLSLTCTVSGFSLGSNSVGWVRQAPGKAPEWVAGIDTDGEEGYNPALNSRLSITRDTSKSQVSLSLSSVTSEDTAVYYCGRSYRADGLAYGYVQAIDYWGPGLLVTVSSEGKSSGASGESKVDDRVVRTQPSSVSGSLGQRVSITCSGSFIGISSVGWFQQLPGSGLRTIIVASDGRPSGVPDRFSMSKSGNTATLTISSLQAEDEADYFCGSSDRTQYTGVFGSGTRLTVLG
notes: as for B1
Molecule B2 returned a B50 of 92 nM.

B3: CB2 scAb (scFv)
scFv: QVQLQESGPSLVKPSQTLSLTCTVSGFSLSTNSVGWVRQAPGKAPEWVAGIDTDGEEGFNPVLKSRLSITRDTSKSQVSLSLSNVTSEDTAVYYCGRSYRTDGLAYGYVQAIDYWGPGLLVTISSEGKSSGASGESKVDDQSVLTQPSSVSGSPGQTVSITCSGSYIGSSGVGWFQQLPGSGLRTIIVASDGRPSGVPDRFSMSKSGNTATLTISSLQAEDEADYFCGSSDRTQYTGLFGSGTRLTVLG
notes: as for B1
The molecule B3 had a B50 of 93 nM.

B4: CE2 scAb (scFv)
scFv: QVQLQESGPSLVKPSQTLSLTCTVSGFSLTNYPVGWVRQAPGKALEWIGNIENDGSANYASALKSRLSITRDTSKNQVSLSLSSATTEDTAVYYCGREFGGSDGYTYFVDIDYWGPGLLVTVSSEGKSSGASGESKVDDQAVLTQPSSVSKSLGQSVSITCSGSSSNVGYGNYVSWFQQVPGSAPKILIYGATSRASGVPDRFSGSRSGNTATLTITSLQAEDEADYYCASYDGSSSGVFGSGTRLTVLG
notes: also called CE2/E1B8; not shown: human C kappa domain and hexa-His tag of the scAb format
In turn, B4 came in with a B50 of 211 nM.

B5: S2C6 scAb (scFv)
scFv: QVQLQESGPSLVKPSQTLSLTCTVSGFSLISNSVGWVRQAPGKAPEWVAGIDTDGEEGYNPALKSQYAASDPDTSKSQVSLSLSSVTSEDTAVYYCGRTYRTDGFAYGYVQAIDYWGPGLLLTISSEGKSSGASGESKVDDQAVLTQPSSVSGSLGQRVSITCSGSFIGISSVGWFQQLPGSGLRTIIVASDGRPSGVPDRFSMSKSGNTATLTISSLQAEDEADYFCGSSDRTQYTGVFGSGTRLTVLG
notes: as for B1
B5 had a B50 of 51 nM.

B6: CE3 scAb (scFv)
scFv: QVRLQESGPSLVKPSQTLSVTCTVSGFSLISNAVGWVRQAPGKVPESLAGCSSDGKCYYNSALKSRLDITRDTSKNQISLSLSSVTTDDAAVYYCTRGYYPVYGYDYLGTIDYWGPGLLVTVSSEGKSSGASGESKVDDQAVLTQPSSVSGSLGQRVSITCSGSSSNVGRNDVAWFQQLPGSGLRTIIYGTTSRPSGIPDRFSGSKSGVTATLTIDSLQAEDEADYFCASGDSSAINDIFGSGTRLTVLG
notes: as for B1
In the case of B6, the B50 came out at 209 nM.

B7: S1D9 scAb (scFv)
scFv: QVQLQESGPSLVKPSQTLSLTCTVSGFSLTSNSVGWVRQAPGKAPEWVAGIDSDGEEGYNPALNSRLSITRDTSKNQVSLSLSRVTSEDTAVYYCGRTYRTDGYAYGYVQAIDYWGPGLLVTVSSEGKSSGASGESKVDDRVMLTQPPSVSGSPGQTVSITCSGSFIGISSVGWFQQLPGSGLRTVIFASDGRPSGVPDRFSNSKSGNTATLTISSLQAEDEADYFCGSSDRTQYTGVFGSGTRLTVLS
notes: as for B1
The molecule B7 yielded a B50 of 107 nM.
